Test results from publication PMC10943247 (2024).

Tests used:
[1] = molecular target: CRL2^FEM1B complex with FEM1B^F549S, unneddylated (human, UniProt Q13617 1-745; P62877 1-108; Q15370 1-104; Q15369 17-112; Q9UK73 1-627, F549S)
[2] = molecular target: CRL2^FEM1B complex with FEM1B^Δ546-553 (FEM1B^DEL), unneddylated (human, UniProt Q13617 1-745; P62877 1-108; Q15370 1-104; Q15369 17-112; Q9UK73 1-627, Δ546-553)
[3] = molecular target: CRL2^FEM1B complex with FEM1B^F549T, unneddylated (human, UniProt Q13617 1-745; P62877 1-108; Q15370 1-104; Q15369 17-112; Q9UK73 1-627, F549T)
[4] = molecular target: CRL2^FEM1B complex with FEM1B^F549R, unneddylated (human, UniProt Q13617 1-745; P62877 1-108; Q15370 1-104; Q15369 17-112; Q9UK73 1-627, F549R)
[5] = molecular target: CRL2^FEM1B complex with FEM1B^Y275R/L278R, unneddylated (human, UniProt Q13617 1-745; P62877 1-108; Q15370 1-104; Q15369 17-112; Q9UK73 1-627, Y275R | L278R)

B1: FNIP1/FLCN complex (complex)
chain 1: MAPTLFQKLFSKRTGLGAPGRDARDPDCGFSWPLPEFDPSQIRLIVYQDCERRGRNVLFDSSVKRRNEDISVSKLGSDAQVKVFGKCCQLKPGGDSSSSLDSSVTSSSDIKDQCLKYQGSRCSSDANMLGEMMFGSVAMSYKGSTLKIHQIRSPPQLMLSKVFTARTGSSICGSLNTLQDSLEFINQDNNTLKADNNTVINGLLGNIGLSQFCSPRRAFSEQGPLRLIRSASFFAVHSNPMDMPGRELNEDRDSGIARSASLSSLLITPFPSPNSSLTRSCASSYQRRWRRSQTTSLENGVFPRWSIEESFNLSDESCGPNPGIVRKKKIAIGVIFSLSKDEDENNKFNEFFFSHFPLFESHMNKLKSAIEQAMKMSRRSADASQRSLAYNRIVDALNEFRTTICNLYTMPRIGEPVWLTMMSGTPEKNHLCYRFMKEFTFLMENASKNQFLPALITAVLTNHLAWVPTVMPNGQPPIKIFLEKHSSQSVDMLAKTHPYNPLWAQLGDLYGAIGSPVRLARTVVVGKRQDMVQRLLYFLTYFIRCSELQETHLLENGEDEAIVMPGTVITTTLEKGEIEESEYVLVTMHRNKSSLLFKESEEIRTPNCNCKYCSHPLLGQNVENISQQEREDIQNSSKELLGISDECQMISPSDCQEENAVDVKQYRDKLRTCFDAKLETVVCTGSVPVDKCALSESGLESTEETWQSEKLLDSDSHTGKAMRSTGMVVEKKPPDKIVPASFSCEAAQTKVTFLIGDSMSPDSDTELRSQAVVDQITRHHTKPLKEERGAIDQHQETKQTTKDQSGESDTQNMVSEEPCELPCWNHSDPESMSLFDEYFNDDSIETRTIDDVPFKTSTDSKDHCCMLEFSKILCTKNNKQNNEFCKCIETVPQDSCKTCFPQQDQRDTLSILVPHGDKESSDKKIAVGTEWDIPRNESSDSALGDSESEDTGHDMTRQVSSYYGGEQEDWAEEDEIPFPGSKLIEVSAVQPNIANFGRSLLGGYCSSYVPDFVLQGIGSDERFRQCLMSDLSHAVQHPVLDEPIAEAVCIIADMDKWTVQVASSQRRVTDNKLGKEVLVSSLVSNLLHSTLQLYKHNLSPNFCVMHLEDRLQELYFKSKMLSEYLRGQMRVHVKELGVVLGIESSDLPLLAAVASTHSPYVAQILL
chain 2: MNAIVALCHFCELHGPRTLFCTEVLHAPLPQGDGNEDSPGQGEQAEEEEGGIQMNSRMRAHSPAEGASVESSSPGPKKSDMCEGCRSLAAGHPGYISHDKETSIKYVSHQHPSHPQLFSIVRQACVRSLSCEVCPGREGPIFFGDEQHGFVFSHTFFIKDSLARGFQRWYSIITIMMDRIYLINSWPFLLGKVRGIIDELQGKALKVFEAEQFGCPQRAQRMNTAFTPFLHQRNGNAARSLTSLTSDDNLWACLHTSFAWLLKACGSRLTEKLLEGAPTEDTLVQMEKLADLEEESESWDNSEAEEEEKAPVLPESTEGRELTQGPAESSSLSGCGSWQPRKLPVFKSLRHMRQVLGAPSFRMLAWHVLMGNQVIWKSRDVDLVQSAFEVLRTMLPVGCVRIIPYSSQYEEAYRCNFLGLSPHVQIPPHVLSSEFAVIVEVHAAARSTLHPVGCEDDQSLSKYEFVVTSGSPVAADRVGPTILNKIEAALTNQNLSVDVVDQCLVCLKEEWMNKVKVLFKFTKVDSRPKEDTQKLLSILGASEEDNVKLLKFWMTGLSKTYKSHLMSTVRSPTASESRN
[1]
  koff: 0.00178 s⁻¹
[2]
  koff: 0.000955 s⁻¹
[3]
  koff: 0.00184 s⁻¹
[4]
  koff: 0.00141 s⁻¹
[5]
  koff: 0.000653 s⁻¹
